Reference: patent EP4628505A1 (Genor Biopharma Co., Ltd., dated 2025)
Where a chain is given by its changes, count along the chain named. One block for each binder: values may come before it.

Experiments:
[1] = target: T1, mouse CTLA4 (Acro Biosystem, Catlog #CT4-M52H5) (mouse, UniProt P09793 36-161); test: ELISA, plate coated with 1 ug/ml mouse CTLA4
T1 construct: Bought protein

recombinant human CTLA-4 = target: T2, recombinant human CTLA-4 (human, UniProt P16410 36-161, limits assumed); test: Octet (BLI), 1:1 binding model
T2 construct: also called CTLA4 antigen
T2 sequence (looked up): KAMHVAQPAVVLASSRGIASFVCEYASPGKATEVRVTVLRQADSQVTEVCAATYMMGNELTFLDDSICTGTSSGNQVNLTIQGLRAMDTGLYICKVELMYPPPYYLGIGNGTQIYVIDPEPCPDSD

B1: GBD008-hS005-3 (antibody, V domains shown)
VH: EVQLVESGGGLVQPGGSLRLSCAASGRTASSNAMAWVRQAPGKEREFVSAISATGGLTAYADSVKGRFTISRDNSKNTLYLQMNSLRAEDTAVYYCAVGRERWYLRHTENEYDYWGQGTLVTVSS
notes: Humanized heavy chain-only antibody (VHH-Fc), no light chain
binding result [1]: no binding
Kd (recombinant human CTLA-4): 0.524 nM
koff (recombinant human CTLA-4): 9.91e-05 s⁻¹
kon (recombinant human CTLA-4): 189000 M⁻¹ s⁻¹

B3: GBD008-S004 (antibody, V domains shown)
VH: EVQLVESGGGLVQAGGSLRLSCLASGRTFSSYDMGWFRQAPGKEREFVAAISWGGVNTYYADSVKGRFTISRDNAKNTVYLQMNSLKPEDTAVYYCARGSAPYSSSRSSAQETYAQWGQGTQVTVSS
notes: Heavy chain-only antibody (VHH-Fc), no light chain
binding result [1]: no binding
Kd (recombinant human CTLA-4): 28.9 nM
koff (recombinant human CTLA-4): 0.00501 s⁻¹
kon (recombinant human CTLA-4): 173000 M⁻¹ s⁻¹

B4: GBD008-hS004-5 (antibody, V domains shown)
VH: B3 VH with A14P, L23A, V79L, K87R, P88A, Q122L
notes: as for B1
binding result [1]: no binding
Kd (recombinant human CTLA-4): 27.9 nM
koff (recombinant human CTLA-4): 0.00671 s⁻¹
kon (recombinant human CTLA-4): 241000 M⁻¹ s⁻¹

B5: GBD008-S019 (antibody, V domains shown)
VH: QVQLVESGGGLVQPGGSLTLSCAASGFTFSSYTMAWYRQAPGKEREVVAGISRSGGTTNYGDSVKGRFTISRDNAKNTVYLQMNSLKPEDTAVYYCRAVSDYWGQGTQVTVSS
notes: Heavy chain-only antibody (VHH-Fc), no light chain; also called GBD008-5019
binding result [1]: no binding
Kd (recombinant human CTLA-4): 0.165 nM
koff (recombinant human CTLA-4): 4.35e-05 s⁻¹
kon (recombinant human CTLA-4): 263000 M⁻¹ s⁻¹

Now from value to binder:

binding result [1]: no binding
Kd (recombinant human CTLA-4): 0.53 nM
koff (recombinant human CTLA-4): 0.000114 s⁻¹
kon (recombinant human CTLA-4): 214000 M⁻¹ s⁻¹
B2: GBD008-hS005-3-2 (antibody, V domains shown)
VH: B1 VH with V37F
notes: as for B1

binding result [1]: no binding
Kd (recombinant human CTLA-4): 0.236 nM
koff (recombinant human CTLA-4): 7.13e-05 s⁻¹
kon (recombinant human CTLA-4): 302000 M⁻¹ s⁻¹
B6: GBD008-hS019-4 (antibody, V domains shown)
VH: B5 VH with Q1E, V5L, T19R, A75S, V79L, K87R, P88A, Q108L
notes: as for B1
